Biological target: T1, Ubc9 (Sumo E2 conjugating enzyme), S. cerevisiae (S. cerevisiae, UniProt P50623 1-157)
T1 construct: Ubc9, S. cerevisiae; also called yeast Ubc9; source: cation exchange for crystallography; not shown: GST, N-terminal, cleaved
T1 sequence: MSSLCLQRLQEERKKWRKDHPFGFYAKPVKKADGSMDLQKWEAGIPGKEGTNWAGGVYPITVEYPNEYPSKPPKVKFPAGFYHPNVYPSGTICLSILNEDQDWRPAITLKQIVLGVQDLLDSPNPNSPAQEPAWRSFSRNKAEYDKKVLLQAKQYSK
Test: crystal structure; 1.1:1 volume:volume mixture of Uba2^ufd at 22 mg/ml and Ubc9 at 27 mg/ml; crystals at 4°C; 20% (w/v) PEG3350, 0.1 M Bis-Tris pH 5.5, 0.2 M Li2SO4; 2.3 Å; two complexes per asymmetric unit
Settings: both partners purified

binding result: binds
B1: Uba2 ubiquitin-fold domain (Uba2^ufd), residues 439-563, S. cerevisiae (domain or fragment, UniProt P52488 439-563, looked up)
chain: SKVCRGVIKLSSDCLNKMKLSDFVVLIREKYSYPQDISLLDASNQRLLFDYDFEDLNDRTLSEINLGNGSIILFSDEEGDTMIRKAIELFLDVDDELPCNTCSLPDVEVPLIKANNSPSKNEEEE
notes: Uba2 (Sumo E1 subunit), S. cerevisiae, C-terminal ubiquitin-fold domain, residues 439-563; Expressed from pGEX-4T1; also called yeast Uba2^ufd; not shown: GST, N-terminal, cleaved
